Assay results: IntAct's records for PubMed 23565059

B1: Homeodomain-interacting protein kinase 2 (Mus musculus), Q9QZR5 (parent)
chain: MAPVYEGMASHVQVFSPHTLQSSAFCSVKKLKVEPSSNWDMTGYGSHSKVYSQSKNIPPSQPASTTVSTSLPIPNPSLPYEQTIIFPGSTGHIVVTSASSTSVTGQVLGGPHNLMRRSTVSLLDTYQKCGLKRKSEEIENTSSVQIIEEHPPMIQNNASGATVATATTSTATSKNSGSNSEGDYQLVQHEVLCSMTNTYEVLEFLGRGTFGQVVKCWKRGTNEIVAIKILKNHPSYARQGQIEVSILARLSTESADDYNFVRAYECFQHKNHTCLVFEMLEQNLYDFLKQNKFSPLPLKYIRPVLQQVATALMKLKSLGLIHADLKPENIMLVDPSRQPYRVKVIDFGSASHVSKAVCSTYLQSRYYRAPEIILGLPFCEAIDMWSLGCVIAELFLGWPLYPGASEYDQIRYISQTQGLPAEYLLSAGTKTTRFFNRDTDSPYPLWRLKTPDDHEAETGIKSKEARKYIFNCLDDMAQVNMTTDLEGSDMLVEKADRREFIDLLKKMLTIDADKRVTPIETLNHPFVTMTHLLDFPHSAHVKSCFQNMEICKRRVNMYDTVNQSKTPFITHVAPSTSTNLTMTFNNQLTTVHNQAPTTSSATLSLANPEVSILNYQSALYQPSAASMAAVAPRSMPLQTGTAQICARPDPFQQALIVCPPGFQGLQASPSKHAGYSVRMENAVPIVTQAPGAQPLQIQPGLLAQQAWPGGAQQILLPPAWQQLTGVATHTSVQHAAVIPETMAGTQQLADWRNTHAHGSHYNPIMQQPALLTGHVTLPAAQPLNVGVAHVMRQQPTSTTSSRKSKQHQSSVRNVSTCEVTSSQAISSPQRSKRVKENTPPRCAMVHSSPACSTSVTCGWGDVASSTTRERQRQTIVIPDTPSPTVSVITISSDTDEEEEQKHAPTSTVSKQRKNVISCVTVHDSPYSDSSSNTSPYSVQQRTGHNGTNTLDTKGGLENHCTGNPRTIIVPPLKTQASEVLVECDSLGPAISASHHSSSFKSKSSSTVTSTSGHSSGSSSGAIAYRQQRPGPHFQQQQPLNLSQAQQHMAADRTGSHRRQQAYITPTMAQAPYTFPHNSPSHGTVHPHLAAAAHLPTQPHLYTYTAPTALGSTGTVAHLVASQGSARHTVQHTAYPASIVHQVPVSMGPRVLPSPTIHPSQYPAQFAHQTYISASPASTVYTGYPLSPAKVNQYPYI

Variants of: B1
Settings: with mef2c_mouse Mef2c
For K228A, the “effect of a mutation on the interaction” value was “decreasing interaction strength”.
